# Patent publication US20230270832A1 (published 2023)
# T1: MAGEA1 peptide on HLA-C*07:02 (human)
# T1 peptide: VRFFFPSL
# B1: MAGEA1 TCR 32-41 (TCR, V domains shown)
# Valpha: TQLLEQSPQFLSIQEGENLTVYCNSSSVFSSLQWYRQEPGEGPVLLVTVVTGGEVKKLKRLTFQFGDARKDSSLHITAAQPGDTGLYLCAGDESISYGKLTFGQGTILTVHP
# Vbeta: DAGVIQSPRHEVTEMGQEVTLRCKPISGHDYLFWYRQTMMRGLELLIYFNNNVPIDDSGMPEDRFSAKMPNASFSTLKIQPSEPRDSAVYFCASSFLGWNEKLFFGSGTQLSVL
# B2: MAGEA1 TCR 32-39 (TCR, V domains shown)
# Valpha: DQQVKQNSPSLSVQEGRISILNCDYTNSMFDYFLWYKKYPAEGPTFLISISSIKDKNEDGRFTVFLNKSAKHLSLHIVPSQPGDSAVYFCAASAQNNDMRFGAGTRLTVKP
# Vbeta: NAGVMQNPRHLVRRRGQEARLRCSPMKGHSHVYWYRQLPEEGLKFMVYLQKENIIDESGMPKERFSAEFPKEGPSILRIQQVVRGDSAAYFCASSPSYEQYFGPGTRLTVT
# Target: T1, MAGEA1 peptide on HLA-C*07:02
# Experiment: killing
row,Binder,binding result
1,B1,recognises
2,B2,recognises
